± gives the uncertainty stated by the source.
B1: Bromodomain adjacent to zinc finger domain protein 2B, residues 1927 to 1982; numbered along this chain, Q9UIF8 (parent)
chain: KSIMKVYCQICRKGDNEELLLLCDGCDKGCHTYCHRPKITTIPDGDWFCPACIAKA
B2: E3 ubiquitin-protein ligase TRIM36, residues 208 to 252; numbered along this chain, Q9NQ86 (parent)
chain: KILMCPEHETERINMYCELCRRPVCHLCKLGGNHANHRVTTMSSA

Variants of: B1
Assay: abundance fitness (aPCA) (normalised: wild type 0, dead -1); higher = more abundant; growth selection in yeast, the domain comes from the species named
Details: Homo sapiens
Variant C52N has an abundance fitness of -0.523 ± 0.19.
In the case of C52E, the abundance fitness is reported as -0.581 ± 0.1.
C52P gave an abundance fitness of -0.833 ± 0.16.
Work on C52M yielded an abundance fitness of -0.487 ± 0.26.
With C52Q the abundance fitness was -0.531 ± 0.15.
C52H gave an abundance fitness of -0.392 ± 0.17.
C52F gave an abundance fitness of -0.736 ± 0.21.
C52A gave an abundance fitness of -0.661 ± 0.11.
For C52G, the abundance fitness was -0.544 ± 0.067.
Work on C52K yielded an abundance fitness of -0.486 ± 0.15.
With C52Y the abundance fitness was -0.666 ± 0.13.
For C52L, the abundance fitness was -0.891 ± 0.12.
With C52R the abundance fitness was -0.581 ± 0.069.
Work on C52W yielded an abundance fitness of -0.971 ± 0.12.
C52V showed an abundance fitness of -0.905 ± 0.13.
With C52D the abundance fitness was -0.43 ± 0.18.
Variant C52T has an abundance fitness of -0.539 ± 0.13.
With C52S the abundance fitness was -0.652 ± 0.091.
In the case of A56R, the abundance fitness is reported as 0.174 ± 0.23.
A56S gave an abundance fitness of -0.317 ± 0.17.
Work on A56T yielded an abundance fitness of -0.155 ± 0.16.
A56P showed an abundance fitness of -0.533 ± 0.26.
Work on A56D yielded an abundance fitness of -0.019 ± 0.2.
Variant A56C has an abundance fitness of -0.211 ± 0.23.
Variant A56W has an abundance fitness of -0.331 ± 0.33.
Variant A56M has an abundance fitness of -0.28 ± 0.36.
A56Q gave an abundance fitness of -0.176 ± 0.32.
Variant A56G has an abundance fitness of -0.364 ± 0.21.
With A56V the abundance fitness was 0.045 ± 0.18.
In the case of K55G, the abundance fitness is reported as 0.058 ± 0.48.
With K55Q the abundance fitness was -0.171 ± 0.36.
In the case of K55C, the abundance fitness is reported as -0.154 ± 0.3.
Variant A51G has an abundance fitness of 0.033 ± 0.069.
For A51W, the abundance fitness was -0.175 ± 0.1.
A51S showed an abundance fitness of -0.024 ± 0.082.
A51H showed an abundance fitness of -0.214 ± 0.16.
Work on A51E yielded an abundance fitness of 0.028 ± 0.11.
A51M showed an abundance fitness of 0.022 ± 0.11.
Work on A51K yielded an abundance fitness of -0.162 ± 0.13.
A51V gave an abundance fitness of -0.095 ± 0.094.
In the case of A51I, the abundance fitness is reported as -0.14 ± 0.2.
Variant A51N has an abundance fitness of -0.064 ± 0.17.
Variant A51D has an abundance fitness of 0.026 ± 0.12.
A51F gave an abundance fitness of -0.385 ± 0.22.
Variant A51Q has an abundance fitness of -0.169 ± 0.15.
A51L gave an abundance fitness of -0.045 ± 0.086.
With A51T the abundance fitness was 0.016 ± 0.12.
Variant A51Y has an abundance fitness of -0.346 ± 0.21.
A51C gave an abundance fitness of -0.124 ± 0.12.
With A51R the abundance fitness was -0.087 ± 0.069.
P50R gave an abundance fitness of 0.183 ± 0.35.
With P50A the abundance fitness was -0.074 ± 0.48.
Variant P50L has an abundance fitness of -0.71 ± 0.4.
In the case of P50G, the abundance fitness is reported as -0.235 ± 0.34.
I53W gave an abundance fitness of -0.179 ± 0.1.
I53R gave an abundance fitness of -0.087 ± 0.078.
For I53P, the abundance fitness was 0.118 ± 0.15.
In the case of I53D, the abundance fitness is reported as -0.006 ± 0.12.
With I53N the abundance fitness was -0.242 ± 0.15.
In the case of I53L, the abundance fitness is reported as 0.043 ± 0.088.
Variant I53A has an abundance fitness of -0.037 ± 0.074.
Variant I53Y has an abundance fitness of -0.026 ± 0.16.
With I53S the abundance fitness was -0.033 ± 0.092.
I53H gave an abundance fitness of -0.083 ± 0.15.
For I53M, the abundance fitness was 0.021 ± 0.11.
In the case of I53E, the abundance fitness is reported as 0.016 ± 0.084.
Work on I53K yielded an abundance fitness of -0.089 ± 0.14.
Variant I53V has an abundance fitness of -0.004 ± 0.07.
I53T showed an abundance fitness of -0.225 ± 0.1.
For I53C, the abundance fitness was -0.051 ± 0.12.
For I53G, the abundance fitness was -0.03 ± 0.065.
Work on I53F yielded an abundance fitness of -0.072 ± 0.24.
A54V gave an abundance fitness of -0.053 ± 0.09.
For A54G, the abundance fitness was -0.086 ± 0.072.
A54M showed an abundance fitness of -0.309 ± 0.19.
For A54S, the abundance fitness was -0.082 ± 0.088.
A54P gave an abundance fitness of 0.048 ± 0.1.
A54K gave an abundance fitness of -0.036 ± 0.12.
In the case of A54R, the abundance fitness is reported as -0.211 ± 0.073.
A54T gave an abundance fitness of -0.031 ± 0.1.
For A54L, the abundance fitness was 0.032 ± 0.089.
A54F gave an abundance fitness of -0.093 ± 0.14.
A54D showed an abundance fitness of -0.062 ± 0.12.
Variant A54H has an abundance fitness of -0.164 ± 0.13.
With A54N the abundance fitness was -0.136 ± 0.17.
With A54W the abundance fitness was -0.229 ± 0.1.
In the case of A54E, the abundance fitness is reported as 0.113 ± 0.1.
For A54Y, the abundance fitness was -0.102 ± 0.2.
For A54Q, the abundance fitness was 0.066 ± 0.11.
A54I showed an abundance fitness of -0.265 ± 0.13.
Variant A54C has an abundance fitness of -0.095 ± 0.15.
In the case of C49Q, the abundance fitness is reported as -0.959 ± 0.16.
Variant C49W has an abundance fitness of -0.932 ± 0.1.
Variant C49R has an abundance fitness of -0.822 ± 0.073.
C49V showed an abundance fitness of -1.03 ± 0.13.
Variant C49Y has an abundance fitness of -1.11 ± 0.14.
Work on C49S yielded an abundance fitness of -0.838 ± 0.092.

Variants of: B2
Assay: as above
Details: Homo sapiens
With L3R the abundance fitness was -0.114 ± 0.042.
L3K showed an abundance fitness of 0.006 ± 0.058.
L3N gave an abundance fitness of -0.013 ± 0.1.
L3W gave an abundance fitness of -0.254 ± 0.053.
In the case of L3P, the abundance fitness is reported as -0.128 ± 0.058.
With L3H the abundance fitness was -0.131 ± 0.078.
In the case of L3A, the abundance fitness is reported as -0.001 ± 0.048.
Variant L3S has an abundance fitness of -0.007 ± 0.048.
Work on L3I yielded an abundance fitness of 0.061 ± 0.079.
With L3Y the abundance fitness was -0.008 ± 0.092.
Variant L3V has an abundance fitness of -0.037 ± 0.05.
Variant L3T has an abundance fitness of 0.036 ± 0.058.
Variant L3M has an abundance fitness of 0.092 ± 0.056.
L3C gave an abundance fitness of -0.055 ± 0.057.
For L3E, the abundance fitness was 0.163 ± 0.052.
With L3D the abundance fitness was 0.07 ± 0.059.
With L3F the abundance fitness was -0.04 ± 0.19.
Variant L3G has an abundance fitness of -0.016 ± 0.045.
With E11G the abundance fitness was -0.047 ± 0.12.
E11P gave an abundance fitness of -0.854 ± 0.42.
E11V gave an abundance fitness of -0.126 ± 0.077.
Variant E11S has an abundance fitness of -0.132 ± 0.097.
In the case of E11Q, the abundance fitness is reported as -0.079 ± 0.13.
With E11W the abundance fitness was -0.52 ± 0.13.
Work on E11K yielded an abundance fitness of -0.259 ± 0.11.
Work on E11R yielded an abundance fitness of -0.602 ± 0.081.
In the case of E11C, the abundance fitness is reported as -0.773 ± 0.1.
Variant E11M has an abundance fitness of -0.322 ± 0.13.
With E11Y the abundance fitness was 0.082 ± 0.27.
For E11A, the abundance fitness was -0.376 ± 0.074.
With E11L the abundance fitness was -0.196 ± 0.11.
For Y16L, the abundance fitness was -0.053 ± 0.076.
Y16Q gave an abundance fitness of -0.306 ± 0.29.
Work on Y16A yielded an abundance fitness of -0.264 ± 0.11.
In the case of Y16P, the abundance fitness is reported as -0.111 ± 0.37.
In the case of Y16K, the abundance fitness is reported as -0.16 ± 0.1.
Y16F gave an abundance fitness of -0.046 ± 0.084.
Variant Y16M has an abundance fitness of 0.11 ± 0.25.
Y16G gave an abundance fitness of -0.478 ± 0.11.
Y16D gave an abundance fitness of -0.105 ± 0.11.
For Y16H, the abundance fitness was 0.082 ± 0.14.
Work on P6Y yielded an abundance fitness of -0.228 ± 0.067.
Variant P6G has an abundance fitness of -0.14 ± 0.046.
P6H showed an abundance fitness of -0.108 ± 0.095.
P6M showed an abundance fitness of -0.224 ± 0.066.
For P6W, the abundance fitness was -0.378 ± 0.078.
P6T showed an abundance fitness of 0.018 ± 0.076.
P6D showed an abundance fitness of -0.092 ± 0.071.
P6K showed an abundance fitness of 0.023 ± 0.078.
Variant P6C has an abundance fitness of -0.235 ± 0.069.
In the case of P6A, the abundance fitness is reported as -0.072 ± 0.062.
P6R gave an abundance fitness of -0.145 ± 0.049.
P6F showed an abundance fitness of -0.234 ± 0.094.
Work on P6I yielded an abundance fitness of -0.219 ± 0.084.
P6V showed an abundance fitness of -0.069 ± 0.07.
With P6N the abundance fitness was -0.139 ± 0.1.
P6Q showed an abundance fitness of -0.042 ± 0.071.
In the case of P6E, the abundance fitness is reported as -0.016 ± 0.052.
For K1F, the abundance fitness was -0.167 ± 0.097.
Variant K1L has an abundance fitness of -0.388 ± 0.092.
In the case of K1Y, the abundance fitness is reported as -0.497 ± 0.12.
In the case of K1C, the abundance fitness is reported as -0.573 ± 0.17.
Variant K1I has an abundance fitness of -0.291 ± 0.14.
For K1S, the abundance fitness was -0.396 ± 0.058.
With K1Q the abundance fitness was -0.236 ± 0.081.
Variant K1A has an abundance fitness of -0.25 ± 0.068.
K1N gave an abundance fitness of -0.101 ± 0.11.
With K1R the abundance fitness was -0.28 ± 0.062.
K1W gave an abundance fitness of -0.508 ± 0.057.
In the case of K1V, the abundance fitness is reported as -0.243 ± 0.078.

Source: the Human Domainome abundance scans (Beltran et al. 2025)
